The values that follow come from publication PMC3956856, “Interaction of Kinase-Interaction-Motif Protein Tyrosine Phosphatases with the Mitogen-Activated Protein Kinase ERK2” (PLoS ONE, 2014).

For experiment [1], the target named is p38α. The following applies: ref [14], cited from earlier work; for Kd: values previously published, [15], [17], [18]. The text has this:
We used ITC measurements to determine the binding affinity of STEP and PTPSL for unphosphorylated ERK2 ( Table 1; Figure S1). […] This complex has a ∼3-times lower Kd (tighter binding) than the next tightest complex, ERK2:PTPSL, and a nearly 70-fold greater affinity than the weakest complex, p38α:HePTP [15]. Like STEP, PTPSL binds ERK2 more tightly (∼3.5-fold) than p38α. We also tested peptides that include the kinase specificity s ... || We also generated a chimeric protein in which we fused the PTPSLKIMKIS to STEPCAT (PSchimera; Figure 1A ). […] Thus, they only adopt a single conformation when they bind their respective MAPKs. This is different from the MAPK-binding domains (MKBD) of MAPK phosphatases (MKP; dual specificity phosphatases; DUSPs), [26]. In MKPs, the KIM sequence is part of a stable, folded domain and thus adopts a single, ordered conformation in both the unbound and MAPK-bound states, [28]. […] Our ... || (+ 1 further places)

In experiment [2] the target is T1, ERK2 (Rattus norvegicus, UniProt P63086).
T1 construct: gene Mapk1; made in house
Kind of experiment: Isothermal titration calorimetry with ERK2. It counts as binding. The method, then:
The PTPSLKIM peptide (residues 331–348), STEPKIM (residues 213–229) and STEPKIMKIS (residues 213–256) were synthesized, HPLC purified and verified by mass spectrometry (MS) (>98% purity; Biosynthesis, Inc.). Expression and purification of ERK2 and PTPSLKIMKIS (residues 332–373) was carried out as previously described, [15]. PTPSL (residues 332–655, human), STEP (residues 213–539, mouse) and PSChimera (PTPSL residues 332–373 with STEP residues 257–539; gene synthesized by DNA 2.0) were expressed and purified using the protocol previously described in detail for STEPCAT (residues 244–539). The DUSP16 MAPK binding domain (residues 5–138, human) was expressed and purified as previously described. All purified proteins were stored at −80 °C until use at which point they were thawed and exchanged into the appropriate buffer using size exclusion chromatography (SEC; Superdex 75 26/60; GE Healthcare). The final protein buffer was dependent on the experiment performed. For ITC experiments, the final SEC purification was performed in ITC buffer (10 mM Tris pH 7.5, 150 mM NaCl, 0.1 mM EDTA, 0.5 mM TCEP); for SAXS experiments, the final SEC purification was performed in SAXS buffer (50 mM HEPES pH 6.8, 150 mM NaCl, 5 mM dithiothreitol). PTPSLKIM, STEPKIM and STEPKIMKIS peptides were solubilized in ITC buffer prior to ITC measurements.
ITC experiments were performed at 25 °C using a VP-ITC microcalorimeter (Microcal Inc.). Titrant (10 μL per injection) was injected into the sample cell over a period of 20 seconds with a 250 second interval between titrations to allow for complete equilibration and baseline recovery. 28 injections were delivered during each experiment and the solution in the sample cell was stirred at 307 rpm to ensure rapid mixing. To determine the thermodynamic parameters (ΔH, ΔS, ΔG) and binding constants (K) of the ERK2:PTPSLKIM, ERK2:PTPSL, ERK2:STEP and ERK2:PSChimera interactions, PTPSLKIM, PTPSL, STEP and PSChimera were titrated into ERK2. To determine the same parameters for the ERK2:STEPKIM, ERK2:PTPSLKIMKIS and ERK2:STEPKIMKIS interaction, ERK2 was titrated into the peptides. Titrants were chosen based on the amount of purified protein/peptide available for the experiment. For all titrations the concentrations were slightly varied to ensure independence of the Kd from the protein/peptide concentrations. Data were analyzed with a one-site binding model assuming a binding stoichiometry of 1∶1 using Origin 7.0 software. A nonlinear least-squares algorithm and the titrant and sample cell concentrations were used to fit the heat flow per injection to an equilibrium binding equation, providing values of the stoichiometry (n), change in enthalpy (ΔH) and binding constant (K). All data were repeated in triplicate.
Background: ITC needs no label: the signal is the heat of the interaction.

The target of experiment [3] is T1, ERK2. The following applies: [17], cited from earlier work; for Kd: ERK2, values previously published, ref [14], [15], [18]; for tighter binding to ERK2 than to p38α: HePTP residues 15–339 and HePTP KIM-peptide residues 15–31, ref [16]. An excerpt: Over the last years different groups, including ours, have studied the interaction of MAPK regulatory proteins, as well as substrates, with different MAPKs, especially ERK2, p38 and JNK [12]–[17]. However, while a plethora of cell biological data is available, much less systematic interaction data using quantitative methods, such as isothermal titration calorimetry (ITC), has been reported. This is of special interest, as recent studies have shown that while KIM-peptides derived from KIM-containing regulatory proteins and substrates readily discriminate between ERK2/p38 and JNK, they discr ... || We used ITC measurements to determine the binding affinity of STEP and PTPSL for unphosphorylated ERK2 ( Table 1; Figure S1). […] This complex has a ∼3-times lower Kd (tighter binding) than the next tightest complex, ERK2:PTPSL, and a nearly 70-fold greater affinity than the weakest complex, p38α:HePTP [15]. Like STEP, PTPSL binds ERK2 more tightly (∼3.5-fold) than p38α. We also tested peptides that include the kinase specificity s ... || Figure 3 Regulatory protein-MAPK interaction strengths. The binding strengths of each KIM-PTP (KIM peptides and KIM-containing MKBDs (in orange font), light blue; KIMKIS peptides, light purple; proteins, light pink) to p38α and ERK2 represented from weakest to tightest (largest Kd to smallest Kd) binding affinity; ‘^†’ indicates values previously published, [15], [17], [18]. KIM-PTP:MAPK complexes determined to be extended using SAXS written in normal text; KIM-PTP:MAPK complexes determined to be compact written in italics; *, compact nature of the ERK2-PTPSL complex determined by ...

Experiment [4] concerns the target T1, ERK2. The following applies: ref [16], cited from earlier work.
For experiment [5], the target named is T2, extracellular signal-regulated kinase 2 (ERK2), unphosphorylated (UniProt P63086 1-358).
T2 construct: ERK2 (extracellular signal-regulated kinase 2), unphosphorylated; also called MAPK; source: final SEC (Superdex 75 26/60)
Kind of experiment: ITC; ERK2 titrated into STEPKIM, PTPSL KIMKIS or STEP KIMKIS in the cell; 25 °C; 10 mM Tris pH 7.5, 150 mM NaCl, 0.1 mM EDTA, 0.5 mM TCEP; one-site model; triplicate. The settings on record: both partners purified.

Experiment [6] deals with p38α. The following applies: NMR spectroscopy; ref [14]; cited from earlier work. The text has this:
Although there are a few structural differences between ERK2 and p38α in this region (e.g., the activation loop is six residues longer in ERK2), nearly all residues that that we sh ... || The KIM domains of KIM-PTPs are intrinsically disordered in solution [14], [15]. Thus, they only adopt a single conformation when they bind their respective MAPKs. This is different from the MAPK-binding domains (MKBD) of MAPK phosphatases (MKP; dual specificity phosphatases; DUSPs), [26]. In MKPs, the KIM sequence is part of a stable, folded domain and thus adopts a single, ordered conformation in both the unbound and MAPK-bound states, [28]. […] Our ...

Experiment [7] concerns the target T2, extracellular signal-regulated kinase 2 …. Kind of experiment: ITC; PTPSLKIM, PTPSL, STEP or PSChimera titrated into ERK2 in the cell; 25 °C; 10 mM Tris pH 7.5, 150 mM NaCl, 0.1 mM EDTA, 0.5 mM TCEP; one-site model; triplicate. The settings on record: both partners purified.
Setting [8] is: ERK2:HePTP resting-state complex.

Turning to “HePTPKIM: HePTP KIM-peptide (residues 15–31) (TLSLGAAMTQPPPEKTP; KIM peptide; UniProt P35236 15-31, looked up, fragment) [reference compound]”, the dissociation constant Kd (in general, the constant that tells how readily two partners part at equilibrium) at p38α [1] is 5.15 ± 1.29 µM. In addition, the “differences in affinity of KIM peptides for ERK2 versus p38α” value in the experiment with ERK2 [2] (KIM peptides of the KIM-PTPs) was 4.0. Further, in the experiment with ERK2 [3], the Kd was 1.28 ± 0.11 µM and the “tighter binding to ERK2 than to p38α” value is reported as about 4 times.
“HePTPKIMKIS: HePTP KIMKIS peptide, values previously published (VRLQERRGSNVALMLDVRSLGAVEPICSVNTPREVTLHFLRT)”: in the experiment with ERK2 [3], the Kd is 0.679 ± 0.122 µM.

B1: HePTP: HePTP (residues 15–339), hematopoietic protein tyrosine phosphatase (protein, UniProt P35236 15-339, looked up, fragment)
chain: TLSLGAAMTQPPPEKTPAKKHVRLQERRGSNVALMLDVRSLGAVEPICSVNTPREVTLHFLRTAGHPLTRWALQRQPPSPKQLEEEFLKIPSNFVSPEDLDIPGHASKDRYKTILPNPQSRVCLGRAQSQEDGDYINANYIRGYDGKEKVYIATQGPMPNTVSDFWEMVWQEEVSLIVMLTQLREGKEKCVHYWPTEEETYGPFQIRIQDMKECPEYTVRQLTIQYQEERRSVKHILFSAWPDHQTPESAGPLLRLVAEVEESPETAAHPGPIVVHCSAGIGRTGCFIATRIGCQQLKARGEVDILGIVCQLRLDRGGMIQTAEQ
On to B1, for which, in the experiment with ERK2 [4] (setting [8]), the “maximum dimension (Dmax)” value is 110 Å and the “radius of gyration (Rg)” value is recorded as 33.3 Å. Further, the “shape of the complex with ERK2 (in words)” value with ERK2 [4] (resting-state complex, SAXS) was “highly extended in solution”. Besides, the Kd on p38α [1] was 2.57 ± 0.65 µM. Besides, in the experiment with ERK2 [3], the Kd is 0.371 ± 0.04 µM and the “tighter binding to ERK2 than to p38α” value is reported as about 7 times.

B2: STEPKIM peptide (STEP residues 213-229) (peptide, UniProt P54830 213-229, looked up)
peptide: MGLQERRGSNVSLTLDM
notes: STEP (PTPN5, striatal enriched protein tyrosine phosphatase), residues 213-229 (KIM); mouse is stated for the STEP 213-539 construct; source: synthetic peptide (Biosynthesis, Inc.), HPLC purified, >98% purity
In experiment [5], B2 came in with a Kd of 0.546 µM.

B3: STEP KIMKIS peptide (STEP residues 213-256) (peptide, UniProt P54830 213-256, looked up)
peptide: MGLQERRGSNVSLTLDMCTPGCNEEGFGYLVSPREESAHEYLLS
notes: STEP (PTPN5), residues 213-256 (KIM and KIS); mouse is stated for the STEP 213-539 construct; source: synthetic peptide (Biosynthesis, Inc.), HPLC purified, >98% purity
Molecule B3 yielded a Kd in experiment [5] of 0.123 µM.

B4: STEPCAT: STEPCAT (residues 244–539), catalytic domain of STEP (protein, UniProt P54829 244-539, looked up, fragment)
chain: GSNVSLTLDMCTPGCNEEGFGYLMSPREESAREYLLSASRVLQAEELHEKALDPFLLQAEFFEIPMNFVDPKEYDIPGLVRKNRYKTILPNPHSRVCLTSPDPDDPLSSYINANYIRGYGGEEKVYIATQGPIVSTVADFWRMVWQEHTPIIVMITNIEEMNEKCTEYWPEEQVAYDGVEITVQKVIHTEDYRLRLISLKSGTEERGLKHYWFTSWPDQKTPDRAPPLLHLVREVEEAAQQEGPHCAPIIVHCSAGIGRTGCFIATSICCQQLRQEGVVDILKTTCQLRQDRGGMI
modifications: catalytic domain
notes: STEPCAT (residues 244–539), catalytic domain of STEP
On to B4, for which the “interaction with p38α by NMR (in words)” value in the experiment with p38α [6] is reported as “interacts directly with p38α”.

B5: PS_(Chimera) (PTPSL residues 332-373 with STEP residues 257-539) (other, human | mouse, UniProt Q15256 332-373, looked up)
chain: GLQERRGSNVSLTLDMSSLGNIEPFVSIPTPREKVAMEYLQSASRVLRAEELHEKALDPFLLQAEFFEIPMNFVDPKEYDIPGLVRKNRYKTILPNPHSRVRLTSPDPEDPLSSYINANYIRGYSGEEKVYIATQGPIVSTVADFWRMVWQERTPIIVMITNIEEMNEKCTEYWPEEQVVHDGVEITVQKVIHTEDYRLRLISLRRGTEERSLKHYWFTSWPDQKTPDRAPPLLHLVREVEEAAQQEGPHCSPIIVHCSAGIGRTGCFIATSICCQQLRREGVVDILKTTCQLRQDRGGMIQTCEQYQFVHHAMSLYEKQLSLQS
notes: PTPSL (PTPRR), residues 332-373 (KIM and KIS); human is stated for the PTPSL 332-655 construct; STEP (PTPN5), residues 257-539 (catalytic domain); mouse is stated for the STEP 213-539 construct; Chimera of PTPSL KIMKIS fused to STEPCAT; source: gene synthesized by DNA 2.0; final SEC
In experiment [7], B5 returned a Kd of 0.047 µM and a dH of -77.4 kJ/mol. Moreover, the “relative binding to p38α (in words)” value with p38α [1] is on record as “binds marginally more tightly to p38α than any of the WT-KIM-PTPs”. For the same molecule, the “relative binding to ERK2 (in words)” value in the experiment with ERK2 [2] (ERK2, ITC) is on record as “binds to ERK2 with about equal binding strength as STEP”. The molecule also had a TΔS in the experiment with ERK2 [2] (unphosphorylated ERK2, ITC, 25 °C, 10 mM Tris pH 7.5, 150 mM NaCl, 0.1 mM EDTA, 0.5 mM TCEP, average and standard deviation, triplicate) of -35.6 ± 2.9 kJ/mol.

B6: PTPSLKIM peptide (PTPSL residues 331-348) (peptide, UniProt Q15256 331-348, looked up)
peptide: IGLQERRGSNVSLTLDMS
notes: PTPSL/PTPBR7 (PTPRR, PTP STEP-like), residues 331-348 (KIM); human is stated for the PTPSL 332-655 construct; source: synthetic peptide (Biosynthesis, Inc.), HPLC purified, >98% purity
Regarding B6, in experiment [7], the Kd was determined as 0.463 µM and the dH was -98.3 kJ/mol.

B7: PTPSL KIMKIS (PTPSL residues 332-373) (peptide, UniProt Q15256 332-373, looked up)
chain: GLQERRGSNVSLTLDMSSLGNIEPFVSIPTPREKVAMEYLQS
notes: PTPSL/PTPBR7 (PTPRR), residues 332-373 (KIM and KIS); human is stated for the PTPSL 332-655 construct; Recombinant, not synthetic; source: final SEC
The molecule B7 displayed a Kd in experiment [5] of 0.825 µM.
